Results reported in publication PMC11988184.

B1: c-Myc tagged MIRO1 (mitochondrial rho GTPase 1), wild type [not stated] / MCU (mitochondrial Ca2+ uniporter), endogenous in HEK cells [human (endogenous in HEK)] (parent)
chain 1: MKKDVRILLVGEPRVGKTSLIMSLVSEEFPEEVPPRAEEITIPADVTPERVPTHIVDYSEAEQSDEQLHQEISQANVICIVYAVNNKHSIDKVTSRWIPLINERTDKDSRLPLILVGNKSDLVEYSSMETILPIMNQYTEIETCVECSAKNLKNISELFYYAQKAVLHPTGPLYCPEEKEMKPACIKALTRIFKISDQDNDGTLNDAELNFFQRICFNTPLAPQALEDVKNVVRKHISDGVADSGLTLKGFLFLHTLFIQRGRHETTWTVLRRFGYDDDLDLTPEYLFPLLKIPPDCTTELNHHAYLFLQSTFDKHDLDRDCALSPDELKDLFKVFPYIPWGPDVNNTVCTNERGWITYQGFLSQWTLTTYLDVQRCLEYLGYLGYSILTEQESQASAVTVTRDKKIDLQKKQTQRNVFRCNVIGVKNCGKSGVLQALLGRNLMRQKKIREDHKSYYAINTVYVYGQEKYLLLHDISESEFLTEAEIICDVVCLVYDVSNPKSFEYCARIFKQHFMDSRIPCLIVAAKSDLHEVKQEYSISPTDFCRKHKMPPPQAFTCNTADAPSKDIFVKLTTMAMYPHVTQADLKSSTFWLRASFGATVFAVLGFAMYKALLKQR
chain 2: VHQRIASWQNLGAVYCSTVVPSDDVTVVYQNGLPVISVRLPSRRERCQFTLKPISDSVGVFLRQLQEEDRGIDRVAIYSPDGVRVAASTGIDLLLLDDFKLVINDLTYHVRPPKRDLLSHENAATLNDVKTLVQQLYTTLCIEQHQLNKERELIERLEDLKEQLAPLEKVRIEISRKAEKRTTLVLWGGLAYMATQFGILARLTWWEYSWDIMEPVTYFITYGSAMAMYAYFVMTRQEYVYPEARDRQYLLFFHKGAKKSRFDLEKYNQLKDAIAQAEMDLKRLRDPLQVHLPLRQIGEKD

Variants of: B1
Assay: co-immunoprecipitation (anti-Myc IP, immunoblot quantification)
Details: with MCU (mitochondrial Ca2+ uniporter), c-Myc-tagged MIRO1 constructs expressed in HEK cells for 24 h, n = 6 independent experiments, parent: 0.26, read off a plot
Variant chain 1 E208K E328K has a response of 0.065 AU. In the case of chain 1 S432N, the response is reported as 0.36 AU.
